# According to patent US20070053837A1, “Radiopharmaceuticals for cancer diagnosis and treatment” (priority 2003, published 2007):
# Square brackets hold non-standard residues; d marks the D form. Peptide text beside a SMILES is read from it. * marks the point of attachment. DOTA = O=C(O)CN1CCN(CC(=O)O)CCN(CC(=O)*)CCN(CC(=O)O)CC1; Met(O2) = CS(=O)(=O)CC[C@H](N)C(=O)O; 2Thi = N[C@@H](Cc1cccs1)C(=O)O; Sar = CNCC(=O)O
# Experiments:
# gliomas / glioblastoma = tested on: gliomas / glioblastoma; set-up: species or system patients; conditions: in vivo
# Excerpt: As a third group which can serve as a control, 5 advanced cases that had been treated by the so called standard regimens with virtually no therapeutic option left anymore were included. […] In cases with biopsy alone, average survival is around 9 weeks without further treatment. In the 4 cases of this pilot study, all patients survived at least 2 months and up to 9 months, and In a special case even show a remarkable partial response. In the resected 5 cases followed by Internal radionuclide conjugate brachytherapy, overall survival appeared to be longer than expected which is in the range between 14 and 26 months. According to the only large randomized trial of 1970s which serves as historical control, resection alone would have led to an expected survival of about 4 months, and resection plus an external beam radiotherapy to a mean survival of about 9.5 months. […] This interpretation of the data is further supported by an impressive partial response (case W. […] A key question in local glioma therapy is whether one can achieve to reach infiltrating tumor cell nests or satellite lesion. […] The presently used dissipative Y-90 (range 3-6 mm) is more suitable for bulky lesions.
# [1] = type: in vitro ADME, patients
# Description: Further stability test by in vitro experiments incubating ^90Y-DOTAGA-Substance P in different CSF (cerebrospinal fluid) aspirates from patients are executed.
# NK1 receptors = biological target: T1, NK1 receptors (Homo sapiens, UniProt P25103); assay: Binding affinity to NK-1 receptors, in vitro autoradiography, displacement of ^125I-Bolton-Hunter-SP; conditions: tumor tissue expressing NK1 receptors; radioligand ^125I-Bolton-Hunter-SP; concentrations 0.1 nM to 1'000 nM; read-out: IC50 ± SEM (mean value)
# T1 construct: In vitro autoradiography is performed with tumor tissue expressing NK1 receptors; from tissue
# T1 sequence (P25103 whole entry): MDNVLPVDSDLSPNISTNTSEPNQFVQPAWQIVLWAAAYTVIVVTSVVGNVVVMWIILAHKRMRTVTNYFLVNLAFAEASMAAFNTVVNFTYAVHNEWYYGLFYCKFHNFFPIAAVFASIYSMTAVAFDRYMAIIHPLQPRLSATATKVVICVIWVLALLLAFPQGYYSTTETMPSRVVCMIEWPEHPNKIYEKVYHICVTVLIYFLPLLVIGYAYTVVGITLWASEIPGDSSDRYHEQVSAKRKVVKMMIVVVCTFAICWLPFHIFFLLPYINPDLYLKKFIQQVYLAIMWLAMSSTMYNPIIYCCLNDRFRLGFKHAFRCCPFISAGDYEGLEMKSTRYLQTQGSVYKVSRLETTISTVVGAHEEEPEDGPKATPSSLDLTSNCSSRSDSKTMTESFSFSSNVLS
# Description: Example C4 Binding Affinity to NK-1 Receptors In vitro autoradiography is performed with tumor tissue expressing NK1 receptors. The used radioligand is ^125I-Bolton-Hunter-SP. Displacement experiments are performed on successive sections with the various compounds listed in the Table given in concentrations ranging from 0.1 nM to 1'000 nM.
Compound,IC50 (NK1 receptors),other results
"CSCC[C@H](NC(=O)[C@H](CC(C)C)NC(=O)CNC(=O)[C@H](Cc1ccccc1)NC(=O)[C@H](Cc1ccccc1)NC(=O)[C@H](CCC(N)=O)NC(=O)[C@H](CCC(N)=O)NC(=O)[C@@H]1CCCN1C(=O)[C@H](CCCCN)NC(=O)[C@@H]1CCCN1C(=O)[C@H](CCCNC(=N)N)NC(=O)CCC(C(=O)O)N1CCN(CC(=O)O)CCN(CC(=O)O)CCN(CC(=O)O)CC1)C(N)=O (single isomer, unassigned) [^111In-DOTAGA-Substance P, ^111In-DOTAGA-Arg^1-Pro^2-Lys^3-Pro^4-Gln^5-Gln^6-Phe^7-Phe^8-Gly^9-Leu^10-Met^11-NH2, metal not drawn]",,diffusibility: distance of satellite lesion that becomes visible (gliomas / glioblastoma): 4 cm
"CSCC[C@H](NC(=O)[C@H](CC(C)C)NC(=O)CNC(=O)[C@H](Cc1ccccc1)NC(=O)[C@H](Cc1ccccc1)NC(=O)[C@H](CCC(N)=O)NC(=O)[C@H](CCC(N)=O)NC(=O)[C@@H]1CCCN1C(=O)[C@H](CCCCN)NC(=O)[C@@H]1CCCN1C(=O)[C@H](CCCNC(=N)N)NC(=O)CCC(C(=O)O)N1CCN(CC(=O)O)CCN(CC(=O)O)CCN(CC(=O)O)CC1)C(N)=O (stereo partly drawn) [^90Y-DOTAGA-Substance P, ^90Y-DOTAGA-Arg^1-Pro^2-Lys^3-Pro^4-Gln^5-Gln^6-Phe^7-Phe^8-Gly^9-Leu^10-Met^11-NH2, metal not drawn]",,stability in CSF aspirate [1]: stable for several hours; time to complete degradation in CSF aspirate [1]: ≤ 5 h
"CSCC[C@H](NC(=O)[C@H](CC(C)C)NC(=O)CNC(=O)[C@H](Cc1cccs1)NC(=O)[C@H](Cc1cccs1)NC(=O)[C@H](CCC(N)=O)NC(=O)[C@H](CCC(N)=O)NC(=O)[C@@H]1CCCN1C(=O)[C@H](CCCCN)NC(=O)[C@@H]1CCCN1C(=O)[C@H](CCCNC(=N)N)NC(=O)CN1CCN(CC(=O)O)CCN(CC(=O)O)CCN(CC(=O)O)CC1)C(N)=O [^111In-DOTA-[Thi^7, Thi^8]-Substance P, ^111In-DOTA-Arg^1-Pro^2-Lys^3-Pro^4-Gln^5-Gln^6-Thi^7-Thi^8-Gly^9-Leu^10-Met^11-NH2, metal not drawn] ({DOTA}-RPKPQQ[2Thi][2Thi]GLM-NH2)",7.7 ± 0.7 nM,

# More lines, main results first:
IC50 (NK1 receptors),Compound,other results
0.78 ± 0.03 nM,"CC(C)C[C@H](NC(=O)CNC(=O)[C@H](Cc1cccs1)NC(=O)[C@H](Cc1ccccc1)NC(=O)[C@H](CCC(N)=O)NC(=O)[C@H](CCC(N)=O)NC(=O)[C@@H]1CCCN1C(=O)[C@H](CCCCN)NC(=O)[C@@H]1CCCN1C(=O)[C@H](CCCNC(=N)N)NC(=O)CN1CCN(CC(=O)O)CCN(CC(=O)O)CCN(CC(=O)O)CC1)C(=O)N[C@@H](CCS(C)(=O)=O)C(N)=O [^111In-DOTA-Arg^1-Pro^2-Lys^3-Pro^4-Gln^5-Gln^6Phe^7-Thi^8-Gly^9-Leu^10-Met(O2)^11—NH2, metal not drawn] ({DOTA}-RPKPQQF[2Thi]GL[Met(O2)]-NH2)",
3.4 ± 0.4 nM,"CSCC[C@H](NC(=O)[C@H](CC(C)C)NC(=O)CN(C)C(=O)[C@H](Cc1cccs1)NC(=O)[C@H](Cc1ccccc1)NC(=O)[C@H](CCC(N)=O)NC(=O)[C@H](CCC(N)=O)NC(=O)[C@@H]1CCCN1C(=O)[C@H](CCCCN)NC(=O)[C@@H]1CCCN1C(=O)[C@H](CCCNC(=N)N)NC(=O)CN1CCN(CC(=O)O)CCN(CC(=O)O)CCN(CC(=O)O)CC1)C(N)=O [^111In-DOTA-[Thi^8, Sar^9]-Substance P, ^111In-DOTA-Arg^1-Pro^2-Lys^3-Pro^4-Gln^5-Gln^6-Phe^7-Thi^8-Sar^9-Leu^10-Met^11-NH2, metal not drawn] ({DOTA}-RPKPQQF[2Thi][Sar]LM-NH2)",
